T1: intracellular domain of the human p75 TNF receptor (human, UniProt P20333 288-461, limits assumed)
T1 construct: domain: intracellular domain; construct not described; also called p75IC
T1 sequence (looked up): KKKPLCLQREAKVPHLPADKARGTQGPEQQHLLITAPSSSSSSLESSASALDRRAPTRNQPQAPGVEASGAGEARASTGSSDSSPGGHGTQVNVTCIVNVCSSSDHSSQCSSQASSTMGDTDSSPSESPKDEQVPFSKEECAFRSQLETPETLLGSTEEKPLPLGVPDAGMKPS

B1: 'death domain' (DD) of human MORT-1 (residues 92-208) (other, not shown: large carriers)
chain: PGEEDLCAAFNVICDNVGKDWRRLARQLKVSDTKIDSIEDRYPRNLTERVRESLRIWKNTEKENATVAHLVGALRSCQMNLVADLVQEVQQARDLQNRSGAMSPMSWNSDASTSEAS
notes: Gal4 hybrid construct in yeast; also called HF1; MORT-1 DD
B2: 'death domain' (DD) of human TRADD (residues 195-312) (other, not shown: large carriers)
chain: PPPPAQTFLFQGQPVVNRPLSLKDQQTFARSVGLKWRKVGRSLQRGCRALRDPALDSLAYEYEREGLYEQAFQLLRRFVQAEGRRATLQRLVEALEENELTSLAEDLLGLTDPNGGLA
notes: Gal4 hybrid construct in yeast; also called TRADD DD
B3: DD of the rat low-affinity NGF receptor (receptor, UniProt P07174 340-425, looked up)
chain: LPLTKREEVEKLLNGDTWRHLAGELGYQPEHIDSFTHEACPVRALLASWGAQDSATLDALLAALRRIQRADIVESLCSESTATSPV
notes: domain: DD; Two-hybrid control; construct not described

Data set [1] concerns the target T1, intracellular domain of the human p75 …. Briefly: yeast two-hybrid specificity test (not shown).
The target in data set [2] is B2. Briefly: yeast two-hybrid (Gal4 DBD and AD fusions, SFY526), beta-galactosidase filter assay.
Data set [3] deals with the molecule itself. The experiment in a line: yeast two-hybrid (Gal4 DBD and AD fusions, SFY526), beta-galactosidase filter assay; self-association.
Data set [4] addresses B2. The experiment in a line: yeast two-hybrid specificity test (not shown).
Data set [5] concerns the target B1. Briefly: yeast two-hybrid specificity test (not shown).

The values below come from EP0813419B1 (YEDA RESEARCH & DEVELOPMENT COMPANY, LTD., dated 2005).

With B1, the binding result in data set [1] is on record as “no binding”; in data set [2], “binds”; in data set [3] it was “no binding”.

For B2, the binding result in data set [1] was “no binding”; in data set [3], “binds”.

For the molecule B3, the binding result in data set [4] and in data set [5] was “no binding” in each case.
